Results reported in publication PMC12955206.

Molecular target: myeloperoxidase (MPO) (human, UniProt P05164 49-745)
Assay: fluorescence strand displacement

Sequence of myeloperoxidase (MPO) (P05164 49-745): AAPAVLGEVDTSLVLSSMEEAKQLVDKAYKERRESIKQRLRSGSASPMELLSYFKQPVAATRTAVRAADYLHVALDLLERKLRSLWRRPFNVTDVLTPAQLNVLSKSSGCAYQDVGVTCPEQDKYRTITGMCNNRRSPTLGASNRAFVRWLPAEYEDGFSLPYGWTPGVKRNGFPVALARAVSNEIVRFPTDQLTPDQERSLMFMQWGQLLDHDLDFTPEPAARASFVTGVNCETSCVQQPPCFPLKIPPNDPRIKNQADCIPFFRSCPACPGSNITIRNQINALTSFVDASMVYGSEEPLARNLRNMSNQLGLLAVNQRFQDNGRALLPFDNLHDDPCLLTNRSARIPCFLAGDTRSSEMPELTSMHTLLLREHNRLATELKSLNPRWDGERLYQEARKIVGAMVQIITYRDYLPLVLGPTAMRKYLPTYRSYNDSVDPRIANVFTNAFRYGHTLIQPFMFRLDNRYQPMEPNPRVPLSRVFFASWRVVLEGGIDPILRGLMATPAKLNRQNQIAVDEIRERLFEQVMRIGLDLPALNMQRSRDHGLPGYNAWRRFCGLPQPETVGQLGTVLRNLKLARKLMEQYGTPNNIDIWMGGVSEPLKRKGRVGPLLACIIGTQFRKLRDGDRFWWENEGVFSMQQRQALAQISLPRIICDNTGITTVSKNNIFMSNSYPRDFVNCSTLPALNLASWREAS

B1: AptCy3/TBHQ2 duplex (MPO aptamer with trigger strand) (mixed)
DNA 1: CACCTAATACGACTCACTATAGCGGATCCGAAACGCTATTCGGATGGGGTTCCAGATACTAGAAAGAGCAA
DNA 2: CATCCGAATAGCGTTTCGGATC
modifications: internal Cy3-dT at position 45 of the aptamer (Table S1)
- binding result: binds
